Results: patent publication US20180030098A1 (NAVIGO PROTEINS, published 2018)

Molecular target: T1, Recombinant human EGFR-Fc Chimera (R&D Systems, catalog no. 344-ER-050) (human, UniProt P00533 25-645)
T1 construct: range 1-645; Bought reagent; Immobilised on the CM5 chip for SPR; also called hEGFR-Fc; not shown: Fc region of human IgG1, fused at the C-terminus
Experiment: SPR (Biacore) on immobilised hEGFR-Fc

- Kd: 615 nM
B1: Affilin 138838 (designed binder)
chain: MQIFVYTNTGKTITLEVEPSDTIENVKAKIQDKEGIPPDQQRLIWAGKQLEDGRTLSDYNIRNPDILHLVLRLRAAGIGMQIFVHTITGKTITLEVEPSDTIENVKAKIQDKEGIPPDQQRLIWAGKQLEDGRTLSDYNIEGERDLHLVLRLRAA
notes: Affilin of two ubiquitin moieties with PDI motif
